# B1: full-length BICD2 tagged on the C-terminus with mini-TurboID (BICD2-mTrbo) [human] / KIF5B [human (endogenous in HEK293)] (parent complex)
# chain 1: MSAPSEEEEYARLVMEAQPEWLRAEVKRLSHELAETTREKIQAAEYGLAVLEEKHQLKLQFEELEVDYEAIRSEMEQLKEAFGQAHTNHKKVAADGESREESLIQESASKEQYYVRKVLELQTELKQLRNVLTNTQSENERLASVAQELKEINQNVEIQRGRLRDDIKEYKFREARLLQDYSELEEENISLQKQVSVLRQNQVEFEGLKHEIKRLEEETEYLNSQLEDAIRLKEISERQLEEALETLKTEREQKNSLRKELSHYMSINDSFYTSHLHVSLDGLKFSDDAAEPNNDAEALVNGFEHGGLAKLPLDNKTSTPKKEGLAPPSPSLVSDLLSELNISEIQKLKQQLMQMEREKAGLLATLQDTQKQLEHTRGSLSEQQEKVTRLTENLSALRRLQASKERQTALDNEKDRDSHEDGDYYEVDINGPEILACKYHVAVAEAGELREQLKALRSTHEAREAQHAEEKGRYEAEGQALTEKVSLLEKASRQDRELLARLEKELKKVSDVAGETQGSLSVAQDELVTFSEELANLYHHVCMCNNETPNRVMLDYYREGQGGAGRTSPGGRTSPEARGRRSPILLPKGLLAPEAGRADGGTGDSSPSPGSSLPSPLSDPRREPMNIYNLIAIIRDQIKHLQAAVDRTTELSRQRIASQELGPAVDKDKEALMEEILKLKSLLSTKREQITTLRTVLKANKQTAEVALANLKSKYENEKAMVTETMMKLRNELKALKEDAATFSSLRAMFATRCDEYITQLDEMQRQLAAAEDEKKTLNSLLRMAIQQKLALTQRLELLELDHEQTRRGRAKAAPKTKPATPSL
# chain 2: MADLAECNIKVMCRFRPLNESEVNRGDKYIAKFQGEDTVVIASKPYAFDRVFQSSTSQEQVYNDCAKKIVKDVLEGYNGTIFAYGQTSSGKTHTMEGKLHDPEGMGIIPRIVQDIFNYIYSMDENLEFHIKVSYFEIYLDKIRDLLDVSKTNLSVHEDKNRVPYVKGCTERFVCSPDEVMDTIDEGKSNRHVAVTNMNEHSSRSHSIFLINVKQENTQTEQKLSGKLYLVDLAGSEKVSKTGAEGAVLDEAKNINKSLSALGNVISALAEGSTYVPYRDSKMTRILQDSLGGNCRTTIVICCSPSSYNESETKSTLLFGQRAKTIKNTVCVNVELTAEQWKKKYEKEKEKNKILRNTIQWLENELNRWRNGETVPIDEQFDKEKANLEAFTVDKDITLTNDKPATAIGVIGNFTDAERRKCEEEIAKLYKQLDDKDEEINQQSQLVEKLKTQMLDQEELLASTRRDQDNMQAELNRLQAENDASKEEVKEVLQALEELAVNYDQKSQEVEDKTKEYELLSDELNQKSATLASIDAELQKLKEMTNHQKKRAAEMMASLLKDLAEIGIAVGNNDVKQPEGTGMIDEEFTVARLYISKMKSEVKTMVKRCKQLESTQTESNKKMEENEKELAACQLRISQHEAKIKSLTEYLQNVEQKKRQLEESVDALSEELVQLRAQEKVHEMEKEHLNKVQTANEVKQAVEQQIQSHRETHQKQISSLRDEVEAKAKLITDLQDQNQKMMLEQERLRVEHEKLKATDQEKSRKLHELTVMQDRREQARQDLKGLEETVAKELQTLHNLRKLFVQDLATRVKKSAEIDSDDTGGSAAQKQKISFLENNLEQLTKVHKQLVRDNADLRCELPKLEKRLRATAERVKALESALKEAKENASRDRKRYQQEVDRIKEAVRSKNMARRGHSAQIAKPIRPGQHPAASPTHPSAIRGGGAFVQNSQPVAVRGGGGKQV
# Variants of: B1
# Assay: proximity biotinylation, streptavidin bead purification, western blot quantification; parent: 1; read off a plot
row,Variant,ratio to parent
1,chain 1 R747C,~0.5
2,chain 1 N188T,~0.86
3,chain 1 R694C,~0.78

# Source: article PMC12674617 (2025)
